# Experimental data as given in the DeepSol protein solubility set.
# Experiment: soluble on expression in E. coli; label from the status in PepcDB or PDB records
row,Sequence,soluble on expression in E. coli
1,MRLHARSPRVESGRYGWLLDSVVDERRRHRMSFLRLGRNGMSEFERPTDHSLGRCGQVLCVTRGVSSRAPRRSAETGVSVATPATVAAHISVWQYEAMSAYAALAEPHRRQILDLLREGERPAGELVERIALSQPGVSKHLKVLREAGLVVVRADGKQRLYALRPEPLAEVDRWLEPYRAYWSRRLDALERHLEENP,not soluble
2,MRLIKVIITSQKEYSMKKLLSLSAITLSVLAPSAFAAQEVNVYSYRQPFLIEPMFAEFTKETGIKVNVKFAKEGIAEKLAQEGEYSPADVILTSEFSRLFELTEKGLTQPLDSKVIEENIPAQYRDSGDEWFALTQRTRSVYSSRDRLGKLGDDFDYMDLAKPEFKGKICTRSGKHPYNIALVASIIANHGEAEAKAWLEGVKANLARKPQGNDRDQVRAIKEGLCDVSLGNSYYLGAMLNDQEQKSWAEAVYINFPGQNVQGTHVNVSGMAMAKYSPNRENAQKLMEFLTGETAQKMYAEVNYEYPVKPGVQRSALVESWGEFKADSLPLEKIADNNAAAIKLIDEVKFDL,not soluble
3,MRLLLAAPHSGAGKTTVSLALLLALRARGLRVQPFKVGPDYIDPTHLEKAAARRPYNLDGFFLDETGLLALFRHGARGADFALIEGVMGLFDGKDPRGEVGSTAQVARLLKAPVALVVDAKGMAGSIAPLALGFRDFHPGVRVVGVFANRVGSERHAEILKEALKAVGLPLLGWLPQDPALALPERHLGLVLAGEVAPPLEALRRAFRVDLEGVLRLAASAPPLPEARPFLPPRRPPRARVAYAWDKAFSFYYPEALELLEALGAELVPFSPLEDEALPKAHALLLGGGYPELFAERLSANVALREAIRRFPGPIVAECGGYMYLSQGLWVGERFFPMVGLVPGEARMAERPVLGYREVEALRDSPVARKGQAFKGHEFHYARLPASPSPAWRRLGGEEVEGYTDGRVLASFVHLYLPAKPEGVERLLGLASRGKAAGAS,soluble
4,MRLLVADDHPLFRLGLKAALEAEGLEVVAEAGTGEEALVQALEKAPDAVLLDLRMPGMDGLTCARRLREMGYRGLVILLTTYQEPALLLEAYKAGADAYLSKELSAPELKRRLLRIRQGEERLTAPDIPALTPREEEVLRLLAEGLSTKEIARALRLSPETVRSHLESLYAKLEARNRVEALSRARSLGLLP,soluble
5,MRLRKKPWARPALEACSFFVINPTEYKGKWREVFGNSNEIWLELGCGKGGFISKLASTNPDKNFIAVDIKDEVLALAMKKIENEYALIGAETKNIRLMAHEIMLIHRMLDENDQIGRIFINFCNPWPKNRHKARRLTHPNQLNQYRTFLAPNGQIWFKTDDTMLFQDSIKYFEQCNFNIVYLTEDLHASGFEGNIETEHERMFLEQGCKIKFLIAEKK,soluble
6,MRLSRSSHHKTLDEYDFSFQPDLDPRKVRDLATLSFVEGRANAALLGVLVADEVGYQPLERAEARLVFQVISKRYEKGSIILASNKTFSEWGQVGPGFGDEVLATALLGRLLDHCDVISINGPGYRLRNRLKAIERENDVALEHHHHHH,not soluble
7,MRMIPIKIWAADVDVSIGYRAPRAASNTLGIFSYSAEYTLCTLPISNMTSQSVMFKGGLPADCTCPICEQALRDPIKLNCDHHYCRQCFENENRTPGCAACQTIIQPELCQHDRAKQKQILALPVVCTFESSGCPWDGQLGTLHDHLSECTFKSSLKCEKCGRQFAKNDLEKHRAKCELNRAVCSFCNKTIRDSDRERHPKTCPQVIISCPFQCGLTDRPRLEIEAHCPSCPNVDNVCPFVPYGCTFAGGKESIQQHLSDEPVRHLMYLCDEITDLKGTYELMERDMGSFNDRQTRILSAAETCTEMFGPQLIWKIDKLQQRTNEAKSGADTTIFSVPFMSHRFGYKMMACACLFGDGSSAGKSISLYVLLLKGEFDPTLEWPFHRAIKISLLDQNPRPEDRVNITYVIDPRKLKANEKFLARPRGERNAAFGSQSFCSLAILQNYVKDDKIYVQIDVDRCETLPVQLKSRDAKERKQMLDAMRAKTPDVRLHQVRPVTSQSSSAELRV,not soluble
8,MRNGISPIIIDNTNLHAWEMKPYAVMALENNYEVIFREPDTRWKFNVQELARRNIHGVPKEKIQRMKERYEHNVTFHSVLHAEKPSRANRNQGRNSEPSSGSGYWNTYTELPNRRANGLYSNEGYRRGGHHQGY,not soluble
9,MRNWKVTGKYPQLDGTGAVASTHIIIAAEDGAVIPQLIKQDLTSTNDTEIIKAALEEFKKSEYVEIAMGEAVQKVDDLEKISQETAKTAKTAQTAAGLAKVSAERTQRMINLQTIHVLTSGGNVEPDIYKGMLELIEPAKQGEYQAYDVFTVVDESHEDQAVEGNLVFVHVNEPFTYEAQTLKDLESEDKVTVIKYADLVKQD,not soluble
10,MRPPSELLDIISKLAELDPLVRKGAVRQLSSKQEELSDNELNTYVIERLISGCASARAAVRLGYTTALGTILMTKAGESWELDKILAVADKKMDLAEKTVGTGHAIGHYLILVTYCQTRKLKEAEATKIVEHSKKIRDFAPSLAFSQINLLCSLATKTKESVFQKSVSPAIEMNLEGLSSQFTPENVYLALRLRNSHSTVVAKYAKFVKKDGSIQFSDDQYPKILAALKRCDFATVQVFLPLLIKASVESSGFDKMYLKVLEPWALSSNETKVFDRILTIVTQFFDFGGDVKSIVVVFTKEVLNRMETATRGKGQFRLMSKKVDDFAAFIQSKLSELRDEEAYTALKELEKCGNVDKACGTGLTTALLSNLGKKQISVWIKENLSNQDEVRKIVSAFSNWDEKSRITVLSALLSQKATETSQSVVTSIIDSLFYVKTRAGEFASIQISEKNEEVLRQLVVAVQGEEEVKKAEKSIGKSKLRKKSLQILWYVTRLWSRIAASSVDSAAYDSDSSEILAIAKNEADGNNSLVFVDLLLSILSREQKFHRTPTAFAFVHAIPTLESKDLCHIVETAMMSEAELAGNDDEDMEDEEGMPFDESEIPSGNGDDEASDSDDDDEEEDDDEGNEAVDQELLDKLNAALGDAAPRDSSSDVEMDDLDDEAMQKMDERLAAAFKAIAPKAGKDKKRSAKSVEALKMKIADLLLIAISSKELAEQSKIKLVVPLLKWAKVDAKTHDKVAQKVLELVNIVVKMKFTDVSEKDALQLLKQVLDEAQTTTNILIIDTVARCVTFVLKISSRDGKSMSAGVKTEFQSLFENYLKNVEGKVPSNFVIQPIADLPLLFVDQLGMLIDAGFDEENRIFKRTEILGAIAMIFTKQVLQETNIKGAIIKKIGKLAAAYFQKVVDSDKSELKPRLFGTVLQLILKVTVCIQNDEKHVDALRESLEYVIQKMFEGEVFIQLKKINPTCHHIIGKSIAGAFTSIKKSLDIEN,not soluble
11,MRPTDTSNFAPAEISKRKVRRVKANGRERARMHGLNNALDMLREYIPITTQHQKLSKIETLRLARNYIDALQRMLQTNEQPTPLEYAHTLANGLSQTTTNMLANLLQVQPRQLLPPSQFDIFSDPSHHQLHPSHPPPHSSFSSSSPSSSCSPPQYYYSPTQPSAAPLQGSCDPQYQQMYHQHSHQNTFNYSP,not soluble
12,MRPYYIAIVGSGPSAFFAAASLLKAADTTEDLDMAVDMLEMLPTPWGLVRSGVAPDHPKIKSISKQFEKTAEDPRFRFFGNVVVGEHVQPGELSERYDAVIYAVGAQSDRMLNIPGEDLPGSIAAVDFVGWYNAHPHFEQVSPDLSGARAVVIGNGNVALDVARILLTDPDVLARTDIADHALESLRPRGIQEVVIVGRRGPLQAAFTTLELRELADLDGVDVVIDPAELDGITDEDAAAVGKVCKQNIKVLRGYADREPRPGHRRMVFRFLTSPIEIKGKRKVERIVLGRNELVSDGSGRVAAKDTGEREELPAQLVVRSVGYRGVPTPGLPFDDQSGTIPNVGGRINGSPNEYVVGWIKRGPTGVIGTNKKDAQDTVDTLIKNLGNAKEGAECKSFPEDHADQVADWLAARQPKLVTSAHWQVIDAFERAAGEPHGRPRVKLASLAELLRIGLG,soluble
13,MRQKLGNTDQAADLVQDTFIKLLQTRDELFGIKEPRAYLTSIAKNLLIDQVRRKRIEQAYLDGLSQMKYMLDAVASPEDQMQIIQAINQLCKALEGVSEKAQQAFILHYLEGYTHKEIAERLNVSTKMIQKYLASCLIQCYQNRQDMDACI,not soluble
14,MRQRTIVCPLIQNDGCYLLCKMADNRGVFPGQWALSGGGVEPGERIEEALRREIREELGEQLILSDITPWTFRDDIRIKTYADGRQEEIYMIYLIFDCVSANRDICINDEFQDYAWVKPEELALYDLNVATRHTLALKGLL,not soluble
15,MRQVTIPLIQSKSMFCVIYRSSKRDQTYLYVEKKDDFSRVPEALMKGFGQPQLAMMLPLDGRKKLVNAELEKVKQALSEQGYYLQLPPPPEDLLKQHLSSVGQNTSPADR,not soluble
16,MRRAELAGLKTMAWVPAESAVEELMPRLLPVEPCDLTEGFDPSVPPRTPQEYLRRVQIEAAQCPDVVVAQIDPKKLKRKQSVNISLSGCQPAPEGYSPTLQWQQQQVAQFSTVRQNVNKHRSHWKSQQLDSNVTMPKSEDEEGWKKFCLGEKLCADGAVGPATNESPGIDYVQIGFPPLLSIVSRMNQATVTSVLEYLSNWFGERDFTPELGRWLYALLACLEKPLLPEAHSLIRQLARRCSEVRLLVDSKDDERVPALNLLICLVSRYFDQRDLADEPSLEHHHHHH,soluble
17,MRRIDMRSWIQNTKKLLPDLLPVMQTRMQILQYIRLMQPIGRRNLSASLGMTERVLRSEVQVLKEQNLVHVASSGMTLTEEGTALVLALEDFMKEISGLKVLEKQLKETLDLDEVFVVPGDSDESPWVKLEMGRACVTCIKDRLTANNIVAVAGGTTLAAAADMMQLDCKDLHMLFVPARGGIGEGVELEANTICAKMAQNTMSNYRLLYVPDHVSSEAYASIVTEPSVKEVLELIRSSNIVIHGIGDALTMARRRSTSEADWLKIQASEAVGEAFGYYFNEEGNVVHKVRTVGMQLEDLQNVSHVVAVAGGSSKAKAIQAVIKQGHTSILITDEGAAKQLTKGFTL,not soluble
18,MRRTRRPRFVLMNKMDDLNLHYRFLNWRRRIREIREVRAFRYQERFKHILVDGDTLSYHGNSGEVGCYVASRPLTKDSNYFEVSIVDSGVRGTIAVGLVPQYYSLDHQPGWLPDSVAYHADDGKLYNGRAKGRQFGSKCNSGDRIGCGIEPVSFDVQTAQIFFTKNGKRVGSTIMPMSPDGLFPAVGMHSLGEEVRLHLNAELGREDDSVMMVDSYEDEWGRLHDVRVCGTLLEYLGKGKSIVDVGLAQARHPLSTRSHYFEVEIVDPGEKCYIALGLARKDYPKNRHPGWSRGSVAYHADDGKIFHGSGVGDPFGPRCYKGDIMGCGIMFPRDYILDSEGDSDDSCDTVILSPTARAVRNVRNVMYLHQEGEEEEEEEEEEEDGEEIEPEHEGRKVVVFFTRNGKIIGKKDAVVPSGGFFPTIGMLSCGEKVKVDLHPLSG,soluble
19,MRSLLLLALVSASAYASFDKIKDSIQNPLARGFGDDIAWVKWEDAIETALDTDKPIFLLIHKSWCHACKALKKTFQQSNAKKAFKKLSEHFVMVNTEDDDEPFEEEYRPDGKYIPRLLFLDKNGDLLQEFKNKKAEYKNYAYYYSSPADILNSMKDVLKHFGVDIPEAKRGDKLKPKKPEGKKKEL,not soluble
20,MRSMKVFISIGVVLSVVNCIFFDHGDSSDGSYSDSSGEGRGHHHKHGPRPPRPNRPPRPPPATPPPTTPAPSCPGGWSLIHRRRGPWCIQVFNGAAGLEGSNNACRAQGAVLSSVENAQERETIARLGLEKMLPTGWKYGTIRVGLRKNSQGAPWYNTDGSTDANNLEGVLWSPAEPRNGNWGGVQLNCATMWLWGGIFEGGRIHGQFFTNICLANNPNDRYRGYVCGKPA,not soluble
21,MRSSAKQEELVKAFKALLKEEKFSSQGEIVAALQEQGFDNINQSKVSRMLTKFGAVRTRNAKMEMVYCLPAELGVPTT,soluble
